Assay results as given in patent US20060263802A1 (CRUCELL HOLLAND B V, published 2006).

How the values were obtained:
Assay in all cases: PEPSCAN ELISA, looped 15-mer, 10 ug/ml
[1] = molecular target: looped peptide … (rabies virus strain ERA)
[2] = molecular target: looped peptide … (rabies virus strain ERA); remark: listed apart in the source
[3] = molecular target: looped peptide … (rabies virus strain ERA); remark: listed apart in the source
[4] = molecular target: looped peptide … (rabies virus strain ERA); remark: listed apart in the source
[5] = molecular target: looped peptide … (rabies virus strain ERA); remark: listed apart in the source
[6] = molecular target: looped peptide … (rabies virus strain ERA); remark: listed apart in the source
[7] = molecular target: looped peptide … (rabies virus strain ERA); remark: listed apart in the source
[8] = molecular target: looped peptide … (rabies virus strain ERA); remark: listed apart in the source
[9] = molecular target: looped peptide … (rabies virus strain ERA); remark: listed apart in the source
[10] = molecular target: looped peptide … (rabies virus strain ERA); remark: listed apart in the source
[11] = molecular target: looped peptide … (rabies virus strain ERA); remark: listed apart in the source
[12] = molecular target: looped peptide … (rabies virus strain ERA); remark: listed apart in the source
[13] = molecular target: looped peptide … (rabies virus strain ERA); remark: listed apart in the source
[14] = molecular target: looped peptide … (rabies virus strain ERA); remark: listed apart in the source
[15] = molecular target: looped peptide … (rabies virus strain ERA); remark: listed apart in the source
[16] = molecular target: looped peptide … (rabies virus strain ERA); remark: listed apart in the source
[17] = molecular target: looped peptide … (rabies virus strain ERA); remark: listed apart in the source
[18] = molecular target: looped peptide … (rabies virus strain ERA); remark: listed apart in the source
[19] = molecular target: looped peptide … (rabies virus strain ERA); remark: listed apart in the source
[20] = molecular target: looped peptide … (rabies virus strain ERA); remark: listed apart in the source
[21] = molecular target: looped peptide … (rabies virus strain ERA); remark: listed apart in the source
[22] = molecular target: looped peptide … (rabies virus strain ERA); remark: listed apart in the source
[23] = molecular target: looped peptide … (rabies virus strain ERA); remark: listed apart in the source
[24] = molecular target: looped peptide … (rabies virus strain ERA); remark: listed apart in the source
[25] = molecular target: looped peptide … (rabies virus strain ERA); remark: listed apart in the source
[26] = molecular target: looped peptide … (rabies virus strain ERA); remark: listed apart in the source
[27] = molecular target: looped peptide … (rabies virus strain ERA); remark: listed apart in the source
[28] = molecular target: looped peptide … (rabies virus strain ERA); remark: listed apart in the source
[29] = molecular target: looped peptide … (rabies virus strain ERA); remark: listed apart in the source
[30] = molecular target: looped peptide … (rabies virus strain ERA); remark: listed apart in the source
[31] = molecular target: looped peptide … (rabies virus strain ERA); remark: listed apart in the source
[32] = molecular target: looped peptide … (rabies virus strain ERA); remark: listed apart in the source
[33] = molecular target: looped peptide … (rabies virus strain ERA); remark: listed apart in the source
[34] = molecular target: looped peptide … (rabies virus strain ERA); remark: listed apart in the source
[35] = molecular target: looped peptide … (rabies virus strain ERA); remark: listed apart in the source
[36] = molecular target: looped peptide … (rabies virus strain ERA); remark: listed apart in the source
[37] = molecular target: looped peptide … (rabies virus strain ERA); remark: listed apart in the source
[38] = molecular target: looped peptide … (rabies virus strain ERA); remark: listed apart in the source
[39] = molecular target: looped peptide … (rabies virus strain ERA); remark: listed apart in the source
[40] = molecular target: looped peptide … (rabies virus strain ERA); remark: listed apart in the source
[41] = molecular target: looped peptide … (rabies virus strain ERA); remark: listed apart in the source
[42] = molecular target: looped peptide … (rabies virus strain ERA); remark: listed apart in the source
[43] = molecular target: looped peptide … (rabies virus strain ERA); remark: listed apart in the source
[44] = molecular target: looped peptide … (rabies virus strain ERA); remark: listed apart in the source
[45] = molecular target: looped peptide … (rabies virus strain ERA); remark: listed apart in the source
[46] = molecular target: looped peptide … (rabies virus strain ERA); remark: listed apart in the source
[47] = molecular target: looped peptide … (rabies virus strain ERA); remark: listed apart in the source
[48] = molecular target: looped peptide … (rabies virus strain ERA); remark: listed apart in the source
[49] = molecular target: looped peptide … (rabies virus strain ERA); remark: listed apart in the source
[50] = molecular target: looped peptide … (rabies virus strain ERA); remark: listed apart in the source
[51] = molecular target: looped peptide … (rabies virus strain ERA); remark: listed apart in the source
[52] = molecular target: looped peptide … (rabies virus strain ERA); remark: listed apart in the source
[53] = molecular target: looped peptide … (rabies virus strain ERA); remark: listed apart in the source
[54] = molecular target: looped peptide … (rabies virus strain ERA); remark: listed apart in the source
[55] = molecular target: looped peptide … (rabies virus strain ERA); remark: listed apart in the source
[56] = molecular target: looped peptide … (rabies virus strain ERA); remark: listed apart in the source
[57] = molecular target: looped peptide … (rabies virus strain ERA); remark: listed apart in the source
[58] = molecular target: looped peptide … (rabies virus strain ERA); remark: listed apart in the source
[59] = molecular target: looped peptide … (rabies virus strain ERA); remark: listed apart in the source
[60] = molecular target: looped peptide … (rabies virus strain ERA); remark: listed apart in the source
[61] = molecular target: looped peptide … (rabies virus strain ERA); remark: listed apart in the source
[62] = molecular target: looped peptide … (rabies virus strain ERA); remark: listed apart in the source
[63] = molecular target: looped peptide … (rabies virus strain ERA); remark: listed apart in the source
[64] = molecular target: looped peptide … (rabies virus strain ERA); remark: listed apart in the source
[65] = molecular target: looped peptide … (rabies virus strain ERA); remark: listed apart in the source
[66] = molecular target: looped peptide … (rabies virus strain ERA); remark: listed apart in the source
[67] = molecular target: looped peptide … (rabies virus strain ERA); remark: listed apart in the source

B1: human monoclonal antibody CRJB (antibody, V domains shown)
VH: QITLKETGPTLVKPTQTLTLTCTFSGFSLSTSGVGVGWIRQPPGKALEWVTLIYWDDDKRYSPSLENRVTIRKDTSKNQVALTMTNMDPLDTGTYYCAHRQHISSFPWFDSWGQGTLVTVSS
VL: SYVLTQPPSVSVAPGKTARINCGGNNIEYRSVHWYQQKSGQAPVAVIYDNSDRPSGIPERFSGSKSGNTATLTISRVEAGDEADYYCQVWDISSDVVFGGGTKLTVLG
Q: How did the OD value [1] turn out when B1 was run?
A: Its OD value is 79.

Q: What about the OD value [2] of the same binder?
A: The OD value was 75.

Q: What about the OD value [3] of the same binder?
A: The OD value was 111.

Q: And the OD value [4]?
A: Its OD value is 27.

Q: What about the OD value [5] of the same binder?
A: The OD value was 96.

Q: And the OD value [6]?
A: The OD value was 55.

Q: What about the OD value [7] of the same binder?
A: Its OD value is 100.

Q: What about the OD value [8] of the same binder?
A: Its OD value is 90.

Q: And the OD value [9]?
A: The OD value was 106.

Q: What about the OD value [10] of the same binder?
A: Its OD value is 111.

Q: And the OD value [11]?
A: The OD value was 85.

Q: What about the OD value [12] of the same binder?
A: Its OD value is 2.

Q: And the OD value [13]?
A: Its OD value is 25.

Q: What about the OD value [14] of the same binder?
A: The OD value was 96.

Q: What about the OD value [15] of the same binder?
A: The OD value was 105.

Q: What about the OD value [16] of the same binder?
A: Its OD value is 79.

Q: What about the OD value [17] of the same binder?
A: The OD value was 108.

Q: And the OD value [18]?
A: The OD value was 103.

Q: And the OD value [19]?
A: Its OD value is 104.

Q: And the OD value [20]?
A: Its OD value is 92.

Q: What about the OD value [21] of the same binder?
A: The OD value was 72.

Q: What about the OD value [22] of the same binder?
A: The OD value was 57.

Q: What about the OD value [23] of the same binder?
A: The OD value was 89.

Q: And the OD value [24]?
A: The OD value was 66.

Q: What about the OD value [25] of the same binder?
A: The OD value was 54.

Q: And the OD value [26]?
A: The OD value was 76.

Q: What about the OD value [27] of the same binder?
A: The OD value was 94.

Q: What about the OD value [28] of the same binder?
A: The OD value was 82.

Q: What about the OD value [29] of the same binder?
A: The OD value was 89.

Q: What about the OD value [30] of the same binder?
A: The OD value was 58.

Q: What about the OD value [31] of the same binder?
A: Its OD value is 78.

Q: And the OD value [32]?
A: The OD value was 82.

Q: And the OD value [33]?
A: The OD value was 57.

Q: And the OD value [34]?
A: Its OD value is 65.

Q: And the OD value [35]?
A: Its OD value is 27.

Q: And the OD value [36]?
A: The OD value was 77.

Q: What about the OD value [37] of the same binder?
A: The OD value was 89.

Q: And the OD value [38]?
A: The OD value was 101.

Q: And the OD value [39]?
A: Its OD value is 48.

Q: And the OD value [40]?
A: The OD value was 58.

Q: And the OD value [41]?
A: Its OD value is 90.

Q: And the OD value [42]?
A: The OD value was 68.

Q: What about the OD value [43] of the same binder?
A: Its OD value is 71.

Q: And the OD value [44]?
A: Its OD value is 34.

Q: And the OD value [45]?
A: Its OD value is 91.

Q: What about the OD value [46] of the same binder?
A: The OD value was 8.

Q: And the OD value [47]?
A: The OD value was 76.

Q: And the OD value [48]?
A: The OD value was 42.

Q: What about the OD value [49] of the same binder?
A: The OD value was 61.

Q: What about the OD value [50] of the same binder?
A: The OD value was 78.

Q: What about the OD value [51] of the same binder?
A: Its OD value is 64.

Q: What about the OD value [52] of the same binder?
A: Its OD value is 94.

Q: What about the OD value [53] of the same binder?
A: Its OD value is 97.

Q: What about the OD value [54] of the same binder?
A: The OD value was 82.

Q: What about the OD value [55] of the same binder?
A: Its OD value is 60.

Q: What about the OD value [56] of the same binder?
A: The OD value was 5.

Q: And the OD value [57]?
A: Its OD value is 98.

Q: And the OD value [58]?
A: Its OD value is 80.

Q: What about the OD value [59] of the same binder?
A: The OD value was 88.

Q: What about the OD value [60] of the same binder?
A: The OD value was 78.

Q: And the OD value [61]?
A: Its OD value is 79.

Q: And the OD value [62]?
A: The OD value was 82.

Q: And the OD value [63]?
A: Its OD value is 123.

Q: What about the OD value [64] of the same binder?
A: The OD value was 86.

Q: What about the OD value [65] of the same binder?
A: The OD value was 73.

Q: What about the OD value [66] of the same binder?
A: Its OD value is 90.

Q: And the OD value [67]?
A: Its OD value is 112.
